Experimental data taken from US11833164B2, “Methods of treating Fabry disease in patients having a mutation in the GLA gene” (Amicus Therapeutics, Inc., priority 2019, dated 2023).
Where a chain is given by its changes, count along the chain named. Numbers in names are those of the source.

B1: Y365N (protein)
chain: MQLRNPELHLGCALALRFLALVSWDIPGARALDNGLARTPTMGWLHWERFMCNLDCQEEPDSCISEKLFMEMAELMVSEGWKDAGYEYLCIDDCWMAPQRDSEGRLQADPQRFPHGIRQLANYVHSKGLKLGIYADVGNKTCAGFPGSFGYYDIDAQTFADWGVDLLKFDGCYCDSLENLADGYKHMSLALNRTGRSIVYSCEWPLYMWPFQKPNYTEIRQYCNHWRNFADIDDSWKSIKSILDWTSFNQERIVDVAGPGGWNDPDMLVIGNFGLSWNQQVTQMALWAIMAAPLFMSNDLRHISPQAKALLQDKDVIAINQDPLGKQGYQLRQGDNFEVWERPLSGLAWAVAMINRQEIGGPRSNTIAVASLGKGVACNPACFITQLLPVKRKLGFYEWTSRLRSHINPTGTVLLQLENTMQMSLKDLL
B2: A370D (protein)
chain: B1 chain with N365Y, A370D
B3: V369L (protein)
chain: B1 chain with N365Y, V369L
B4: I367F (protein)
chain: B1 chain with N365Y, I367F
B5: I367M (protein)
chain: B1 chain with N365Y, I367M
B6: A368G (protein)
chain: B1 chain with N365Y, A368G
B7: I367L (protein)
chain: B1 chain with N365Y, I367L
B8: T366S (protein)
chain: B1 chain with N365Y, T366S
B9: V369G (protein)
chain: B1 chain with N365Y, V369G
B10: V369F (protein)
chain: B1 chain with N365Y, V369F
B11: Y365S (protein)
chain: B1 chain with N365S
B12: V369I (protein)
chain: B1 chain with N365Y, V369I
B13: T366P (protein)
chain: B1 chain with N365Y, T366P
B14: T366I (protein)
chain: B1 chain with N365Y, T366I
B15: T366N (protein)
chain: B1 chain with N365Y, T366N
B16: A370G (protein)
chain: B1 chain with N365Y, A370G
B17: A368P (protein)
chain: B1 chain with N365Y, A368P
B18: V369A (protein)
chain: B1 chain with N365Y, V369A

Tested on: mutant form of α-Gal A expressed in HEK-293 cells
Test: HEK assay (GLP HEK / Migalastat Amenability Assay): α-Gal A activity in lysates of transiently transfected HEK-293 cells incubated with or without 10 μM migalastat
Format: cell-based, human
Conditions: for Absolute increase (% WT) / Relative increase: 10 μM migalastat versus baseline; for Baseline α-Gal A activity (% WT): absence of migalastat; for Baseline α-Gal A activity (% WT) / 10 μM migalastat α-Gal A activity (% WT): percentage of baseline wild-type α-Gal A activity; for Baseline α-Gal A activity (% WT) / Baseline α-Gal A activity / 10 μM migalastat α-Gal A activity / 10 μM migalastat α-Gal A activity (% WT): mean ± SEM; for Baseline α-Gal A activity / 10 μM migalastat α-Gal A activity: lysates of HEK-293 cells transiently transfected with the mutant form; for Baseline α-Gal A activity: incubated 5 days in absence of migalastat; for 10 μM migalastat α-Gal A activity: incubated 5 days with 10 μM migalastat; for 10 μM migalastat α-Gal A activity (% WT): with 10 μM migalastat, 5 days
How it was run: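 HEK-293 cells transiently transfected with mutant α-Gal A and incubated with or without 10 μM migalastat; lysate activity given as nmol free 4-MU released per mg protein per hour. Values are mean±SEM.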

Molecule | Absolute increase (% WT) | Relative increase | Baseline α-Gal A activity (% WT) | Baseline α-Gal A activity | 10 μM migalastat α-Gal A activity | 10 μM migalastat α-Gal A activity (% WT)
B1 | 22.5 % WT | 1.4 | 59.7 ± 1.7 % WT | 19111 ± 869 nmol/mg/h | 26514 ± 1978 nmol/mg/h | 82.2 ± 4.5 % WT
B2 | 22.4 % WT | 1.2 | 87.5 ± 6.1 % WT | 27098 ± 2504 nmol/mg/h | 33279 ± 2473 nmol/mg/h | 109.8 ± 6.8 % WT
B3 | 30.3 % WT | 1.4 | 74.2 ± 3.7 % WT | 27680 ± 1912 nmol/mg/h | 38458 ± 2367 nmol/mg/h | 104.5 ± 5.6 % WT
B4 | 21.6 % WT | 1.4 | 48.3 ± 3.7 % WT | 15728 ± 1680 nmol/mg/h | 22178 ± 1794 nmol/mg/h | 69.9 ± 5.7 % WT
B5 | 22.3 % WT | 1.3 | 76.7 ± 3.9 % WT | 28430 ± 1769 nmol/mg/h | 36008 ± 2249 nmol/mg/h | 99 ± 6.7 % WT
B6 | 30.9 % WT | 1.3 | 83.9 ± 4.7 % WT | 31616 ± 2552 nmol/mg/h | 42198 ± 2923 nmol/mg/h | 114.8 ± 7.8 % WT
B7 | 21.9 % WT | 1.2 | 79 ± 4 % WT | 25211 ± 1640 nmol/mg/h | 31257 ± 2256 nmol/mg/h | 101 ± 9.3 % WT
B8 | 16.2 % WT | 1.2 | 70.6 ± 4.9 % WT | 20731 ± 2170 nmol/mg/h | 24885 ± 1760 nmol/mg/h | 86.7 ± 3.6 % WT
B9 | 5.5 % WT | 3.3 | 2.6 ± 0.2 % WT | 803 ± 59 nmol/mg/h | 2628 ± 291 nmol/mg/h | 8.1 ± 0.7 % WT
B10 | 19.6 % WT | 1.5 | 37.7 ± 2.8 % WT | 11912 ± 1197 nmol/mg/h | 18282 ± 1960 nmol/mg/h | 57.3 ± 4.8 % WT
B11 | 18.4 % WT | 1.4 | 49.4 ± 4.1 % WT | 14346 ± 1563 nmol/mg/h | 19484 ± 1899 nmol/mg/h | 67.8 ± 4.9 % WT
B12 | 19.6 % WT | 1.2 | 79.7 ± 6.8 % WT | 30094 ± 3211 nmol/mg/h | 36630 ± 2373 nmol/mg/h | 99.3 ± 5.5 % WT
B13 | 13.4 % WT | 1.3 | 46.2 ± 4 % WT | 13407 ± 1462 nmol/mg/h | 16910 ± 1608 nmol/mg/h | 59.5 ± 5.1 % WT
B14 | 20.0 % WT | 1.3 | 57.8 ± 2.5 % WT | 18539 ± 1165 nmol/mg/h | 24814 ± 1897 nmol/mg/h | 77.8 ± 5.3 % WT
B15 | 20.4 % WT | 1.3 | 78.1 ± 5.3 % WT | 24650 ± 1756 nmol/mg/h | 30947 ± 1867 nmol/mg/h | 98.5 ± 5.4 % WT
B16 | 22.9 % WT | 1.3 | 78.1 ± 4.4 % WT | 24835 ± 2637 nmol/mg/h | 31805 ± 3001 nmol/mg/h | 101 ± 5.4 % WT
B17 | 25.7 % WT | 1.3 | 91.7 ± 4.6 % WT | 26402 ± 926 nmol/mg/h | 33525 ± 1803 nmol/mg/h | 117.4 ± 8.7 % WT
B18 | 38.6 % WT | 1.5 | 77.6 ± 5 % WT | 23968 ± 1797 nmol/mg/h | 35925 ± 2462 nmol/mg/h | 116.2 ± 6.3 % WT
